Tests used:
HeLa Kyoto [1] = assay: solubility in G1/S (NP-40 vs SDS abundance) (log2 ratio); higher = more soluble; conditions: cell cycle stage: G1/S
HeLa Kyoto [2] = assay: solubility change mitosis vs G1/S (difference of NP-40 vs SDS log2 ratios) (log2 ratio difference); higher = more soluble in mitosis
HeLa Kyoto [3] = assay: melting temperature (median over replicates), in situ; higher = more thermally stable
HeLa Kyoto [4] = assay: thermal stability score vs G1/S (z-score of summed log2 fold changes over temperatures); higher = more thermally stable than in G1/S
[5] = cell cycle stage: early G1 (4.5 h after nocodazole release)
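Wherever melting temperature (median over replicates), in situ is given: HeLa Kyoto cells synchronized by double thymidine or nocodazole block, proteins quantified by TMT10plex mass spectrometry, three independent biological replicates.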
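Wherever solubility change mitosis vs G1/S (difference of NP-40 vs SDS log2 ratios) is given: synchronized HeLa Kyoto cells (double thymidine block for G1/S, nocodazole release for mitosis), protein amounts in NP-40 versus SDS lysates quantified by mass spectrometry, three biological replicates.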
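Wherever solubility in G1/S (NP-40 vs SDS abundance) is given: HeLa Kyoto cells arrested at G1/S by double thymidine block, proteins quantified by TMT10plex mass spectrometry in mild NP-40 versus SDS extracts, three biological replicates.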
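Wherever thermal stability score vs G1/S (z-score of summed log2 fold changes over temperatures) is given: synchronized HeLa Kyoto cells, proteins quantified by TMT10plex mass spectrometry, three biological replicates, mitosis taken 0.5 h after nocodazole release, G1/S directly after double thymidine block.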

| Sequence | solubility in G1/S (log2) (HeLa Kyoto [1]) | solubility change mitosis (log2) (HeLa Kyoto [2]) | melting temperature (HeLa Kyoto [3]; cell cycle stage: G1/S) [°C] | melting temperature (HeLa Kyoto [3]; cell cycle stage: mitosis) [°C] | thermal stability score (HeLa Kyoto [4]; [5]) | thermal stability score (HeLa Kyoto [4]; cell cycle stage: mitosis) |
| --- | --- | --- | --- | --- | --- | --- |
| MEPLSHRGLPRLSWIDTLYSNFSYGTDEYDGEGNEEQKGPPEGSETMPYIDESPTMSPQLSARSQGGGDGVSPTPPEGLAPGVEAGKGLEMRKLVLSGFLASEEIYINQLEALLLPMKPLKATATTSQPVLTIQQIETIFYKIQDIYEIHKEFYDNLCPKVQQWDSQVTMGHLFQKLASQLGVYKAFVDNYKVALETAEKCSQSNNQFQKISEELKVKGPKDSKDSHTSVTMEALLYKPIDRVTRSTLVLHDLLKHTPVDHPDYPLLQDALRISQNFLSSINEDIDPRRTAVTTPKGETRQLVKDGFLVEVSESSRKLRHVFLFTDVLLCAKLKKTSAGKHQQYDCKWYIPLADLVFPSPEESEASPQVHPFPDHELEDMKMKISALKSEIQKEKANKGQSRAIERLKKKMFENEFLLLLNSPTIPFRIHNRNGKSYLFLLSSDYERSEWREAIQKLQKKDLQAFVLSSVELQVLTGSCFKLRTVHNIPVTSNKDDDESPGLYGFLHVIVHSAKGFKQSANLYCTLEVDSFGYFVSKAKTRVFRDTAEPKWDEEFEIELEGSQSLRILCYEKCYDKTKVNKDNNEIVDKIMGKGQIQLDPQTVETKNWHTDVIEMNGIKVEFSMKFTSRDMSLKRTPSKKQTGVFGVKISVVTKRERSKVPYIVRQCVEEVEKRGIEEVGIYRISGVATDIQALKAVFDANNKDILLMLSDMDINAIAGTLKLYFRELPEPLLTDRLYPAFMEGIALSDPAAKENCMMHLLRSLPDPNLITFLFLLEHLKRVAEKEPINKMSLHNLATVFGPTLLRPSEVESKAHLTSAADIWSHDVMAQVQVLLYYLQHPPISFAELKRNTLYFSTDV [ABR] | -0.0712 | -0.111 | 48.8 | 49.1 | 0.864 | 1.73 |
| MEPRPTAPSSGAPGLAGVGETPSAAALAAARVELPGTAVPSVPEDAAPASRDGGGVRDEGPAAAGDGLGRPLGPTPSQSRFQVDLVSENAGRAAAAAAAAAAAAAAAGAGAGAKQTPADGEASGESEPAKGSEEAKGRFRVNFVDPAASSSAEDSLSDAAGVGVDGPNVSFQNGGDTVLSEGSSLHSGGGGGSGHHQHYYYDTHTNTYYLRTFGHNTMDAVPRIDHYRHTAAQLGEKLLRPSLAELHDELEKEPFEDGFANGEESTPTRDAVVTYTAESKGVVKFGWIKGVLVRCMLNIWGVMLFIRLSWIVGQAGIGLSVLVIMMATVVTTITGLSTSAIATNGFVRGGGAYYLISRSLGPEFGGAIGLIFAFANAVAVAMYVVGFAETVVELLKEHSILMIDEINDIRIIGAITVVILLGISVAGMEWEAKAQIVLLVILLLAIGDFVIGTFIPLESKKPKGFFGYKSEIFNENFGPDFREEETFFSVFAIFFPAATGILAGANISGDLADPQSAIPKGTLLAILITTLVYVGIAVSVGSCVVRDATGNVNDTIVTELTNCTSAACKLNFDFSSCESSPCSYGLMNNFQVMSMVSGFTPLISAGIFSATLSSALASLVSAPKIFQALCKDNIYPAFQMFAKGYGKNNEPLRGYILTFLIALGFILIAELNVIAPIISNFFLASYALINFSVFHASLAKSPGWRPAFKYYNMWISLLGAILCCIVMFVINWWAALLTYVIVLGLYIYVTYKKPDVNWGSSTQALTYLNALQHSIRLSGVEDHVKNFRPQCLVMTGAPNSRPALLHLVHDFTKNVGLMICGHVHMGPRRQAMKEMSIDQAKYQRWLIKNKMKAFYAPVHADDLREGAQYLMQAAGLGRMKPNTLVLGFKKDWLQADMRDVDMYINLFHDAFDIQYGVVVIRLKEGLDISHLQGQEELLSSQEKSPGTKDVVVSVEYSKKSDLDTSKPLSEKPITHKVEEEDGKTATQPLLKKESKGPIVPLNVADQKLLEASTQFQKKQGKNTIDVWWLFDDGGLTLLIPYLLTTKKKWKDCKIRVFIGGKINRIDHDRRAMATLLSKFRIDFSDIMVLGDINTKPKKENIIAFEEIIEPYRLHEDDKEQDIADKMKEDEPWRITDNELELYKTKTYRQIRLNELLKEHSSTANIIVMSLPVARKGAVSSALYMAWLEALSKDLPPILLVRGNHQSVLTFYS [SLC12A2] | -0.0146 | -0.137 | 53.4 | 53.3 | 1.53 | 1.39 |
| MERAVQGTDGGGGSNSSSRSSSRATSAGSSPSCSLAGRGVSSRSAAAGLGGGGSRSSPGSVAASPSGGGGRRREPALEGVLSKYTNLLQGWQNRYFVLDFEAGILQYFVNEQSKHQKPRGVLSLSGAIVSLSDEAPHMLVVYSANGEMFKLRAADAKEKQFWVTQLRACAKYHMEMNSKSAPSSRSRSLTLLPHGTPNSASPCSQRHLSVGAPGVVTITHHKSPAAARRAKSQYSGQLHEVREMMNQVEGQQKNLVHAIESLPGSGPLTALDQDLLLLKATSAATLSCLGECLNLLQQSVHQAGQPSQKPGASENILGWHGSKSHSTEQLKNGTLGSLPSASANITWAILPNSAEDEQTSQPEPEPNSGSELVLSEDEKSDNEDKEETELGVMEDQRSIILHLISQLKLGMDLTKVVLPTFILEKRSLLEMYADFMAHPDLLLAITAGATPEERVICFVEYYLTAFHEGRKGALAKKPYNPIIGETFHCSWEVPKDRVKPKRTASRSPASCHEHPMADDPSKSYKLRFVAEQVSHHPPISCFYCECEEKRLCVNTHVWTKSKFMGMSVGVSMIGEGVLRLLEHGEEYVFTLPSAYARSILTIPWVELGGKVSINCAKTGYSATVIFHTKPFYGGKVHRVTAEVKHNPTNTIVCKAHGEWNGTLEFTYNNGETKVIDTTTLPVYPKKIRPLEKQGPMESRNLWREVTRYLRLGDIDAATEQKRHLEEKQRVEERKRENLRTPWKPKYFIQEGDGWVYFNPLWKAH [OSBPL10] | 0.0171 | 0.13 | 48.6 | 51 | -0.0143 | -0.526 |

— the supplement of paper PMC5998384
